{"source": "patent US20140106982A1"}
{"molecular_target": "mAb 2H1", "assay": "VLP library affinity selection on 2H1, clones sequenced"}
{"substance": "WDATLQPA (peptide)", "copies among sequenced affinity-selected clones": "2 copies"}
{"substance": "DTQCQF (peptide)", "copies among sequenced affinity-selected clones": "17 copies"}
{"substance": "WTADLQPE (peptide)", "copies among sequenced affinity-selected clones": "1 copy"}
{"molecular_target": "2C7 antibody", "assay": "VLP library affinity selection on 2C7, clones sequenced"}
{"substance": "ELWRGT (peptide)", "copies among sequenced affinity-selected clones": "2 copies"}
{"substance": "VDYERI (peptide)", "copies among sequenced affinity-selected clones": "2 copies"}
{"substance": "PLWRGT (peptide)", "copies among sequenced affinity-selected clones": "1 copy"}
{"substance": "LDYQRV (peptide)", "copies among sequenced affinity-selected clones": "7 copies"}
{"substance": "LDYERI (peptide)", "copies among sequenced affinity-selected clones": "3 copies"}
{"substance": "LDYEGN (peptide)", "copies among sequenced affinity-selected clones": "1 copy"}
{"substance": "LDYMRT (peptide)", "copies among sequenced affinity-selected clones": "4 copies"}
{"substance": "PLWKGN (peptide)", "copies among sequenced affinity-selected clones": "1 copy"}
